Data from patent US20200407435A1.
“And” between values parts separate entries of the source, which are not always exact repeats. Equal values may be shown once.

Molecular target: rhAngiopoietin-2 (R&D systems cat 623-AN/CF) (human) (UniProt O15123)
Test: cell-based or functional assay

Chain of rhAngiopoietin-2 (R&D systems cat 623-AN/CF) (human) (O15123 19-496 limits assumed): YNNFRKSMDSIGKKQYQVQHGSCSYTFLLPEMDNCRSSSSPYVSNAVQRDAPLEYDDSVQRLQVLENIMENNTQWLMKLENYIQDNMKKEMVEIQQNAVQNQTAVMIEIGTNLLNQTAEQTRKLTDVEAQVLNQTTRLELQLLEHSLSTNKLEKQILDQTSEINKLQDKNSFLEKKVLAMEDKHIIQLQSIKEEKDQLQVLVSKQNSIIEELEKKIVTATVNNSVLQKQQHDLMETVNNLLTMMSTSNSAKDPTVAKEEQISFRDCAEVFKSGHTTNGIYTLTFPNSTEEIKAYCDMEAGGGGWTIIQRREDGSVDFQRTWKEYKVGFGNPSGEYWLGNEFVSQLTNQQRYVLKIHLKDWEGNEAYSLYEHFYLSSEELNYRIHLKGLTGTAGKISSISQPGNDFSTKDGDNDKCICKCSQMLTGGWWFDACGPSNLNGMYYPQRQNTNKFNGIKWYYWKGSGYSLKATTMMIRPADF

- Tie2 phosphorylation functional assay, EC50: 4.4 nM and 2.2 nM
Substance: Nesvacumab analog (Regeneron) (antibody)
